Measured values reported in the DeepSol protein solubility set.

assay: soluble on expression in E. coli; label from the status in PepcDB or PDB records

Row | Sequence | soluble on expression in E. coli
1 | MSPMNRQRKNKSNVLNEKDERPGCIIKEKSSVRSMAKTQPTSGRTISLSEINKPIALSKKNTEIKAAVEIQNRLTKKMAKNSERRKKMAHGPEMTAQNRTQERIDFVEFLDRHYQVMQAGVSTVKVHKMHYTKEEFENVIYEAQTIFSSEKALVDIDPPCVVVGNLHGQFNDLINMFILLGRPPETVYVFTECVTSIPKCGEEIWALFQRCFNNLPISALIATKILCMHGGLSPALTCLDELRNHPKPIRNPFRGIVNDMLWADPDPSVFEWKTSSRGSGFTFGTNVIDDVCKRLGVELIIRAHQMCFDGYWVLSGRKLITIFSAPMYCNFYKNTGCVLKVDETLGIQTVAFVPESENIEKIIEEMNRVWDISIDCIE | not soluble
2 | MVKAGKKVKGASKVRENETEEEKKIRLEMEALAADEAERKAQEAARVALRERQLREQRYAHLNGIKIHNQWRKIMRMAKVEELRREIEILSQNHEREVDRKDAIMQMLDRDLEEAEEQYSLAVRSHMLVVDNLLDLQYQRMRALEAEFAADLKALEDEFETERTEIVNAHTRQRKDMGDMIAAMEGEFADAEAELRQEYEAQREEIKNRNSEEYNVLKIQLEGIIEELEKSFELAHRAYLESTEHRTNTFRTLTKDDAKAALKIERQMRKLVRLQEALQHWRTKIATNGREWEERNRALRNEKEIMARHYAKLKSSMDAFRAGQAERLKQLSLASSGAMETLRGKLAVAENVLKLAELARKYETEQEKVLPFWNPAQAVPSGEQGDEEAAAQAEAEAAALEPSVAELGELGLRASMPEDSSKEAPGPSKSSAGPGKPKFSSYGLDPSSGSEVDEWDYLNCFFRRYNKALLDKTAIDKEKSRLERENADLRSILKQYLDGISVNDDVLNNPVNPLLVVNNRLQITLTERNKARAAAMAQRAAAATGAGLSVTGQGAGGGGQKQLVEVQVVSRVS | not soluble
3 | QSQGVLSSFPAPQAVQDNPAMPTSSGSEGNVKLCSLEEAQRIWKQKSAEIYPIMDKSSRTRLALIICNEEFDSIPRRTGAEVDITGMTMLLQNLGYSVDVKKNLTASDMTTELEAFAHRPEHKTSDSTFLVFMSHGIREGICGKKHSEQVPDILQLNAIFNMLNTKNCPSLKDKPKVIIIQAARGDSPGVVWFKDSVGVSGNLSLPTTEEFEDDAIKKAHIEKDFIAFCSSTPDNVSWRHPTMGSVFIGRLIEHMQEYACSCDVEEIFRKVRFSFEQPDGRAQMPTTERVTLTRCFYLFPGH | soluble
4 | FNLKTPGREDDASSESGDNAEAERAPAFIRALGGAANLEVVDACTTRLRLRLVDRNKASDAQLKALGAMAVVRPGKAGSLQVVVGPQADSIADEIRRALPFDTQPGEAVPPLGSPHTAEEVVAMQATVDAAEAQAWLGALGGAGNLREVRDVALTRLRVSVADERKLATEQLRRLGGQGVSSLAGGICHILVGPRAAALSQALQPLLR | not soluble
5 | MAALSDKLADAYQNARPRYPIDWFTKLAARTGQHKSAWDVGTGNGQAAIGLAEYFEKVTATDINEAQLKRAVKHERISYHHTPTTMSEDQMVALVGGDNSVDLIVAAQAVHYFDLAPFYNVAKRVLRKEGGLIAVFVYNDIIISPEVDSIMKRLVDSTFPFRTPVMNLAFDGYKTLPFPFESIGMGSEGKPIMLDIPHKLSLKGFIGFLRSWQPAMKAKERGVELVTEDLISKFEDAWGDDDDVKDIFYKAHMIVGKLSASDIERHRKRFDTNCVVTTLKDHNNSAVIASVTAAAFAGVAAYCAYSARKNS | soluble
6 | MPLFKERNCSVSIVLDSRTRRKNAYEFPLSLRFTIDRKFFYLTVGSSFSEKKFSDICNATKCKSENYKLQKEWKDTFVPKYKKVLSNLNKGGILTFEMVRQCIIGEDVVLSEEETTKSQSFISIWEQVINGFKTDDGGARFTTAESYECALKSFRKILGANTIKGFCISAAEIQKWKDGMHNGVKDENGAVVGKISDTTVGIYLRCCRAVWNRCVHEGFLKDIPYPFSNKKEKGLVSIPKSAKRKQNFLNVAQMTELYNLFVSKEYPEHWTEEYTQRAHYSLGLFLAQYLCNGFNMADAGRLTYDNYYYKTDGKAFRFNRKKTSRRSADGSEVIVPIIPPLQYVLDEIAAPPTRDGFVFPDILKGAETEELRRKYTVQENSNVKDRVIKICHEALHWDKSICPSGTWCRHSFATNLHNAGVDMDYISESMGHASSDHAITQIYIEHYPLDIQMQNNSKLLNLGETSERDALLAKLANMSTEELAKLFA | not soluble
7 | ATIKDVAKRANVSTTTVSHVINKTRFVAEETRNAVWAAIKELHYSPSAVARSLKVNHTKSIGLLATSSEAAYFAEIIEAVEKNCFQKGYTLILGNAWNNLEKQRAYLSMMAQKRVDGLLVMCSEYPEPLLAMLEEYRHIPMVVMDAGEAKADFTDAVIDNAFEGGYMAGRYLIERGHREIGVIPGPLERNTGAGRLAGFMKAMEEAMIKVPESWIVQGDFEPESGYRAMQQILSQPHRPTAVFCGGDIMAMGALCAADEMGLRVPQDVSLIGYDNVRNARYFTPALTTIHQPKDSLGETAFNMLLDRIVNKREEPQSIEVHPRLIERRSVADGPFRDYRR | soluble
8 | MLYFVLCDLKFNQFSRYPMSYQKIELSISLSLDSPKLDESDFILLSVKYLEKSLGKKKEFSGFFEDIEKLYFKQNYKEAIEKILDFCKKNESLLSEQVVQRLAEVAPRLKSNPKDNESRRLYETLYADHLESVIKQESDLSVFNELRDSYNAVKPEYAVTHETEIKTLDEAKQFILSFVMLNDNVELPLKAQSERYPKKDRSREELGNTPSANPGIMKPNSPNFTDNLVPVRDVPKIAINEKVAGGYSKTKPTTPFVASLSGTTYSLMVVLTDYIEKHKTDKDIEKKVNQIINLWISSYIKEGYHSYSEVVDVLTEPFLQSIFDKANIKLNYGVLDDTHAEFRKAQDYVFGLTIQSAMHHELQERFKNKEKLQEEVKNFESGLNKLNQNVENTGRHREALNKLNEVFQDWSAGKKSYDAFKSESNQLIHDIESEEQKSNRGLGSMLKNLGNYLLYLITLRFLKEDYPKPSSPVTMLVTELRGTLEQIDHFHKTSLSLKKATQPDPKNTSSSDETADVRKSAVDTDKPSKNQDSEVKKTLDSEQLEEVQRQDDKSARLQ | not soluble
9 | MSGFIPGSTTGSMLTAISDTHGTDNHRLTGRTLDAVREADHVLHAGDFMTEQVLDAIDAESDELTGVVGNNDRPAVRARLSDVATVSWEELTIVVVHGHEHTETALGMLARQENADIVVVGHSHKPVLTDFGGWTLVNPGSYADPRRYQPAHAELDVMAGDVRVRLRSPDGTPISTTIVERLEHHHHHH | not soluble
10 | MRGSHHHHHHTDPALRARNRTLADLDRVVALGGGHGLGRVLSSLSSLGSRLTGIVTTTDNGGSTGRIRRSEGGIAWGDMRNCLNQLITEPSVASAMFEYRFGGNGELSGHNLGNLMLKALDHLSVRPLEAINLIRNLLKVDTHLIPMSEHPVDLMAIDDQGHEVYGEVNIDQLTTPIQELLLTPNVPATREAVHAINEADLIIIGPGSFYTSLMPILLLKEIAQALRRTPAPMVYIGNLGRELSLPAANLKLESKLAIMEQYVGKKVIDAVIVGPKVDVSAVKERIVIQEVLEASDIPYRHDRQLLHNALEKALQALGGLCGR | soluble
11 | MKIVILAPTITPIVSYGGLGDVMRDLPKFLKKGNEVVVLTLNHYNRYFTLPYEDIKKITVIYKGAKITFDVLRTKHPTTGVDLIVFSNESVNNLNVWDPIKYEIFADLVITYLDEVKDIDVVSGHDWMCGLAIAKCNDILDLPTTLTIHNEAFKGEMIEYKGEVMTFLELGIKYADAVNTVSPSHAEEIKNYPYIKKYLNNKPFCGILNGIDIDEYDPMKIIERMCNLSNNKLDPRNYAYISPYSAEDSHNIKPKIKYSWFYRGGVYEYVEDWNKIDKGISATDVEVHGGVDGDIETPLIGFVGRATHQKGFNTMFEAIPELLEKHDIRFVFLTKGDRDIEERLKNLANEHDGRILALIGYSLPLSSLVFAGSDWIIMPSYWEPCGLVQMEAMAYCTPVIATETGGLKDTIIPLHPNPYEHPNFDKATGVLFKVPDKVGFMWGVEHALNWTFYKLNEICMFMQYIRYKCPKHPYDENSPLSMMMKNCYYHVFRNLSWQNSPSIRKYKGLFGGAIYNHYLQP | soluble
12 | MRAQMKQYNCHEGALPFTKSYLLRPLFNAFLMSPKPFHTTEACIGCKKCEKVCPVGNITVTDRPVWGGNCTQCLACYHVCPVHAVEYGKMTGLEHHHHHH | not soluble
13 | MGSDKIHHHHHHMMSGLVYRKRRRQNMTALERSWFEEAQQSMHGWDFSHLAGRWQTADLPWDYAALVREHLSADDRWLDIDTGGGELMGRFNPQPALTAVTEGWQPNIELLKQTVVKKGITLYPDAAEQLTAVPNSTFDIVTNSHGAMPVKRIAEVLKPGGRFVTQQVGATNNYALSRFFDEHYETAYPDNQLLTVMAQMQAAGFEILRAEQAYAALSFTDVGAIVYYATVIPWEFPHFDVARMLPKLHQLQSLLAINGRVTTFEDRFMIIARKLARRD | not soluble
14 | MGHHHHHHSHMTKLPPIEQLLPHDKPMILVDRAMDIQQDTIHCQVDIAEHNPFFDSASQTVPAYVGIEFMAQSVAAWSGYHALMKEQAPPIGFLLGSRRYTSECDAFSRGQMLDVYAEKVMEDNGMAVFSARIELQGTVVATCQLNVYVPSEEKLQEMKIRSQQ | not soluble
15 | MINAVGNPQTLLLLGGTSEIGLAICEEYLKKAPMRVILAALPGDPGRDAAVAQLKAAGANAVDVIDFDAVDTESHPKVIDEAWAKSDVDVAIVAFGLLGDAEELWQNQRKAVQIAEVNYTAAVSVGVLVGEKMKAQGFGQIIAMSSAAGERVRRSNFVYGSTKAGLDGFYLGLGEALREFGPRVLVIRPGQVRTRMSADVKEAPLTVNKEDVAKLAVTSAEKGKDLVWAPGAFRYVMMILRHIPRPIFKKLPI | not soluble
16 | MSQIIWGAYAQRNTEDHPPAYAPGYKTSVLRSPKNALISIAETLSEVTAPHFSADKFGPKDNDLILNYAKDGLPIGERVIVHGYVRDQFGRPVKNALVEVWQANASGRYRHPNDQYIGAMDPNFGGCGRMLTDDNGYYVFRTIKPGPYPWRNRINEWSPAHIHFSLIADGWAQRLISQFYFEGDTLIDSCPILKTIPSEQQRRALIALEDKSNFIEADSRCYRFDITLRGRRATYFENDLT | soluble
17 | MELERIVSAALLAFVQTHLPEADLSGLDEVIFSYVLGVLEDLGPSGPSEENFDMEAFTEMMEAYVPGFAHIPRGTIGDMMQKLSGQLSDARNKENLQPQSSGVQGQVPISPEPLQRPEMLKEETRSSAAAAADTQDEATGAEEELLPGVDVLLEVFPTCSVEQAQWVLAKARGDLEEAVQMLVEGKEEGPAAWEGPNQDLPRRLRGPQKDELKSFILQKYMMVDSA | soluble
18 | MAHHHHHHMKLEFAHEAIVSRRRLSKFGYSLQTEKWTLHVNKKKRERKRKDSKKREEGEVIITKNANEREIKTVEESKHHTTCRLWFANVAACMYFLALATEELNTILQTEVFSKQRLIYWQMYHMPCSHISCMSARIPPLPPFRLYVTLKPKMRGSIFANISVGRMVGYEAAWSSTYSKRKR | not soluble
19 | MLRPPMTKLVISNRESHRECEQVLQIGECAIVRSSSGEPWQLLNNGNSDSIDYALLQDILYEGYRLSTIYNIKSHTKSMKRLRRKLASIFSNSNFLLPLSKDGSSSSSQPHFYLSPSNSSLFDARKSSRSRGAVIKSPSTINIEKNRHSSNSGENQKMRLNLSMSTGNLCRAGVVRTPYPTSKQLHFDNDDGDEEDDTDDEGEADLVSIKTRSGRRNVLKSPPPPERIPSSMGASDAEEIDIKSHMKPLSVKIPANIFKTPTLDIPVDDDAEIDADVFPLPPPTPVNLKHGLFSIPSGRNSESARSRQTKRSPFGSVTSRTSSLDRRMSLSCLEDTSNYQKTQYLVFPLRTSSKKPYLLKFPEDMQEEDEKHNGSVWGSDTSLEEEIKV | not soluble
